Experimental data: patent US9056892B2, “Retrograde transport peptide and use of same for delivery to central nervous system” (UNIVERSITY OF WASHINGTON, priority 2011, dated 2015)
No end group written: not given here. *: point of attachment. Biotin = O=C1N[C@H]2[C@H](CS[C@H]2CCCCC(=O)*)N1

B1: Cre: wild-type Cre recombinase, recombinant 6×-his-tagged (protein, UniProt P06956 1-343, looked up)
Recombinase cre: MSNLLTVHQNLPALPVDATSDEVRKNLMDMFRDRQAFSEHTWKMLLSVCRSWAAWCKLNNRKWFPAEPEDVRDYLLYLQARGLAVKTIQQHLGQLNMLHRRSGLPRPSDSNAVSLVMRRIRKENVDAGERAKQALAFERTDFDQVRSLMENSDRCQDIRNLAFLGIAYNTLLRIAEIARIRVKDISRTDGGRMLIHIGRTKTLVSTAGVEKALSLGVTKLVERWISVSGVADDPNNYLFCRVRKNGVAAPSATSQLSTRALEGIFEATHRLIYGAKDDSGQRYLAWSGHSARVGAARDMARAGVSIPEIMQAGGWTNVNIVMNYIRNLDSETGAMVRLLEDGD
modifications: 6xHis tag
notes: wild-type Cre recombinase, recombinant 6×-his-tagged

What was measured:
[1] = Delivery to the CNS after intraperitoneal injection; type: in vivo
Source text: The methods described above in Example 1 were modified to explore alternative modes of delivery to intramuscular injection.

[2] = test system: neurons in the human spinal cord; experiment: Labeling of fresh frozen human spinal cord sections by biotinylated 2404 complexed with quantum dot streptavidin; type: binding; details: overall conclusion
Experimental: FIGS. 6A-6D. Photomicrographs showing TAxI-Streptavidin labels neurons in the adult human spinal cord. Steptavidin conjugated quantum dots (Qdots) were complexed with biotinylated TAxI peptide and incubated on human spinal cord tissue with anti-NeuN and anti-ChAT antibodies. FIG. 6A. Confocal micrographs of ventral root motor neurons stained immunofluorescently for NueN (prominent cytoplasmic stain) and ChAT (lighter cytoplasmic staining) and TAxI-Qdots (primarily visible in the nuclear region). FIG. 6B. High magnification images of the ventral horn stained by immunofluorescence. FIG. 6C. High magnification images of the dorsal grey matter stained by immunofluorescence. FIG. 6D. Spinal cord tissue pre-blocked with 10-fold excess of TAxI-peptide prior to immunofluorescence for NeuN and ChAT and TAxI-QDots.
The ability to target motor neurons that transport peptide-protein complexes and biologically active proteins into the spinal cord provides tremendous potential for utilizing and delivering novel therapeutics for the CNS. This Example examined whether the 2404-peptide could bind to neural elements within the fresh frozen sections of the human spinal cord. […] 2404-steptavidin labeled cells were not prominent in dorsal aspects of the spinal cord.

[3] = test system: spinal cord motor neurons; experiment: Cre recombinase delivery into spinal cord after IM injection in Ai14 reporter mice (tdTomato expression); type: in vivo; details: 2.5 μg into gastrocnemius, one week post-injection
Experimental: To have utility as a therapeutic protein delivery system, the TAxI peptide must traffic cargo without rapid degradation or sequestration. To test for TAxI-mediated delivery of active enzyme to the spinal cord, we generated a series of Cre recombinase chimeras: wild-type Cre (Cre), Cre fused to the TAxI peptide (TAxI-Cre), and Cre fused to a mutated TAxI moiety (TAxI^Q-Cre). After purification, each recombinant Cre protein was injected (2.5 μg) into the gastrocnemius of the Ai14 reporter mice. In these mice, delivery of biologically active Cre recombinase results in td-Tomato expression due the excision of a floxed stop-codon.[27] One week post-injection, confocal microscopy was used to image spinal cords isolated after perfusion fixation. […] Furthermore, td-Tomato^+-cells projected into intermediate lamina of the spinal cord as well as into interneuron polls within multiple longitudinal segments, similar to efferent motor neurons (inset).
The coding sequence for Cre recombinase was obtained from the University of Washington Yeast Resource Center. The TAxI peptide sequence was added to the 5-prime end and both TAxI-Cre and wild-type Cre were subcloned into pRSETb (Invitrogen). To allow for expression and purifaction, each plasmid was transformed into BL21(D3)pLysS and grown in media supplemented with IPTG/X-gal (Promega). […]

| Molecule | delivery to the CNS [1] | binding and labeling of neurons in the human spinal cord [2] | tdTomato colocalization with NeuN and ChAT [3] | tdTomato expression in the lumbar spinal cord ([3]; confocal microscopy) |
| --- | --- | --- | --- | --- |
| ASGAQAR (GGCASGAQARCGG; disulfide (positions not given here); not fully specified (N-terminus, bridges); also: cyclic, mode not given here) [Clone 2404Q] | robust delivery to the CNS |  |  |  |
| QSQSQMR (Biotin-SACQSQSQMRCGGG; disulfide (positions not given here); not fully specified (bridges); also: cyclized, mode not given here) [Clone 2404] | robust delivery to the CNS | able to bind and label neurons in the human spinal cord specifically |  |  |
| TSTAPHLRLRLTSR [Clone 4042] | robust delivery to the CNS |  |  |  |
| B1 |  |  | did not induce tdTomato expression in either NeuN or ChAT-positive cells | small punctuate tdTomato^+-cells |
